This passage reports Ki and Kd results from patent US11814447B2, “Peptide ligands for binding to EphA2” (BICYCLERD LIMITED, priority 2018, dated 2023).

Where two headings read alike, the source gives them in different places. Starred links: 1 amine or outer side, 2 acyl side, 3 side chain; linkers in the order of their positions; H or OH if unused. Positions of bridges follow the written chain, without caps; N, C: chain ends. Non-standard residues stand in square brackets, D forms with d. No end group written: not given here. TATA = O=C(CC[*:1])N1CN(C(=O)CC[*:2])CN(C(=O)CC[*:3])C1; 1Nal = N[C@@H](Cc1cccc2ccccc12)C(=O)O; TBMB = c1c(C[*:1])cc(C[*:3])cc1C[*:2]; hArg = N=C(N)NCCCC[C@H](N)C(=O)O; Tle = CC(C)(C)[C@H](N)C(=O)O; AF488 = AlexaFluor488; Aib = CC(C)(N)C(=O)O; βAla = NCCC(=O)O; Sar = CNCC(=O)O

For one test, the target named is T1, Human EphA2 (Homo sapiens, UniProt P29317).
T1 construct: EphA2 (Ecto); polyHis (C)
The test is described as follows: Fluorescence polarisation competition binding assay. As for the experimental part:
1. Fluorescence Polarisation Measurements
(b) Competition Binding Assay
Peptides without a fluorescent tag were tested in competition with a peptide with a fluorescent tag and a known Kd (Table 2). Peptides were diluted to an appropriate concentration in assay buffer as described in the direct binding assay with a maximum of 5% DMSO, then serially diluted 1 in 2. […] Measurements were conducted as for the direct binding assay, however the gain was determined prior to the first measurement. Data analysis was in Systat Sigmaplot version 12.0 where the mP values were fit to a user defined cubic equation to generate a Ki value: f=y min+(y max−y min)/Lig*((Lig*((2*((Klig+Kcomp+Lig+Comp−Prot*c)^2−3*(Kcomp*(Lig−Prot*c)+Klig*(Comp−Prot*c)+Klig*Kcomp))^0.5*COS(ARCCOS((−2*(Klig+Kcomp+Lig+Comp−Prot*c)^3+9*(Klig+Kcomp+Lig+Comp−Prot*c)*(Kcomp*(Lig−Prot*c)+Klig*(Comp−Prot*c)+Klig*Kcomp)−27*(−1*Klig*Kcomp*Prot*c))/(2*(4(Klig+Kcomp+Lig+Comp−Prot*c)^2−3*(Kcomp*(Lig−Prot*c)+Klig*(Comp−Prot*c)+Klig*Kcomp))^3)^0.5)))/3))−(Klig+Kcomp+Lig+Comp−Prot*c)))/((3*Klig)+42*((Klig+Kcomp+Lig+Comp−Prot*c)^2−3*(Kcomp*(Lig−Prot*c)+Klig*(Comp−Prot*c)+Klig*Kcomp))^0.5*COS(ARCCOS((−2*(Klig+Kcomp+Lig+Comp−Prot*c)^3+9*(Klig+Kcomp+Lig+Comp−Prot*c)*(Kcomp*(Lig−Prot*c)+Klig*(Comp−Prot*c)+Klig*Kcomp)−27*(−1*Klig*Kcomp*Prot*c))/(2*(4(Klig+Kcomp+Lig+Comp−Prot*c)^2−3*(Kcomp*(Lig−Prot*c)+Klig*(Comp−Prot*c)+Klig*Kcomp))^3)^0.5)))/3))−(Klig+Kcomp+Lig+Comp−Prot*c)))).
“Lig”, “KLig” and “Prot” were all defined values relating to: fluorescent peptide concentration, the Kd of the fluorescent peptide and EphA2 concentration respectively.
On the technique in general: Fluorescence polarisation rises when a labelled molecule tumbles more slowly, as on binding a larger partner.

The target in test [1] is T2, Human EphA2 (Ecto) (Human, UniProt P29317 24-537).
T2 construct: extracellular domain; in-house)
The test can be described thus: FP competition; tracer Reference Compound C. In outline:
(§1)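 Unlabelled peptides competed against a fluorescently tagged peptide of known Kd. Peptides were diluted in direct-binding assay buffer (≤5% DMSO) and serially diluted 1 in 2. Read as in the direct binding assay, with gain set before the first read; mP values fit to a cubic equation to give Ki.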

Another test deals with T3, Mouse EphA2 (Ecto) (Mouse, UniProt Q03145 26-538).
T3 construct: extracellular domain; C-terminal polyHis; not shown: Fc fusion or C-terminal polyHis
The test can be described thus: FP competition; tracer Reference Compound C. The essentials:
as §1

For test [2], the target named is T4, Human EphA2 (Ecto), C-terminal polyHis (Human, UniProt P29317 24-537).
T4 construct: extracellular domain; also called EPH receptor A2; ephrin type-A receptor 2
The test is described as follows: fluorescence polarisation competition; competitor fluorescent Compound 12. As for the experimental part: (§2) Peptides without a fluorescent tag were tested in competition with a peptide with a fluorescent tag and a known Kd (Table 2). Peptides were diluted to an appropriate concentration in assay buffer as described in the direct binding assay with a maximum of 5% DMSO, then serially diluted 1 in 2. […] Measurements were conducted as for the direct binding assay, however the gain was determined prior to the first measurement. Data analysis was in Systat Sigmaplot version 12.0 where the mP values were fit to a user defined cubic equation to generate a Ki value: […]

The target in test [3] is T4, Human EphA2 (Ecto), C-terminal polyHis. The test can be described thus: fluorescence polarisation competition; competitor fluorescent Compound 66. The essentials:
as §1

The target is the same in test [4]. The test can be described thus: fluorescence polarisation, direct binding. As for the experimental part:
Biological Data 1. […] The gain used for analysis was determined for each tracer at the end of the 60 minutes where there was no protein in the well. Data was analysed using Systat Sigmaplot version 12.0. mP values were fit to a user defined quadratic equation to generate a Kd value: f=y min+(y max−y min)/Lig*((x+Lig+Kd)/2−sqrt((((x+Lig+Kd)/2)^2)−(Lig*x))). "Lig" was a defined value of the concentration of tracer used.

In test [5] the target is Human EphA2 (Ecto) (Human) (UniProt P29317). The test can be described thus: FP competition; tracer Reference Compound C.
Test [6] deals with Mouse EphA2 (Ecto) (Mouse) (UniProt Q03145). The test can be described thus: FP competition; tracer Reference Compound C.
Test [7] deals with T2, Human EphA2 (Ecto). The test is described as follows: FP competition; tracer Reference Compound A. Here is the method: as §2
For test [8], the target named is T2, Human EphA2 (Ecto). The test can be described thus: FP competition; tracer Reference Compound B. Here is the method: as §2
The target in test [9] is Human EphA2 (Ecto) (Human) (UniProt P29317). The test is described as follows: FP competition, tracer Compound 18.
Test [10] has as its target Mouse EphA2 (Ecto) (Mouse) (UniProt Q03145). The test can be described thus: FP competition, tracer Compound 18.
Setting [11] is: read-out: Ki, nM ± 95% CI Human EphA2 Fluorescent peptide Compound 18, Table 9, Ala scan peptides.
Setting [12] is: read-out: Ki, nM ± 95% CI, Human EphA2, competition binding assay, fluorescent peptide Compound 18, TBMB scaffold reference peptides.

T3 sequence (Q03145 26-538): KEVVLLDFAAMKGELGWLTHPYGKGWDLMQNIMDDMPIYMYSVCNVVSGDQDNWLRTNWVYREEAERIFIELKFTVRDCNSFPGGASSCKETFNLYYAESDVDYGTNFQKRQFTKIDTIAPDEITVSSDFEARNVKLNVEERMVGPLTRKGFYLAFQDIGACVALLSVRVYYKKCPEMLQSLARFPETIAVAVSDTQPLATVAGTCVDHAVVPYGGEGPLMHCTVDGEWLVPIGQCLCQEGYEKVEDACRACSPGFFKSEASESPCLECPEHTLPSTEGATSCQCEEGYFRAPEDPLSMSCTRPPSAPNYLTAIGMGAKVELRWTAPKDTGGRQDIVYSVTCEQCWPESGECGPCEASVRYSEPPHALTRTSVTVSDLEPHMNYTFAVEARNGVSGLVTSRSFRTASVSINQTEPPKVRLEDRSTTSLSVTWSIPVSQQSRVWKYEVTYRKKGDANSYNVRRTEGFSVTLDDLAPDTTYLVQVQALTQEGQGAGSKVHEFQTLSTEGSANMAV
Sequence of Mouse EphA2 (Ecto) (Mouse) (Q03145 26-538): as above
T2 sequence (P29317 24-537): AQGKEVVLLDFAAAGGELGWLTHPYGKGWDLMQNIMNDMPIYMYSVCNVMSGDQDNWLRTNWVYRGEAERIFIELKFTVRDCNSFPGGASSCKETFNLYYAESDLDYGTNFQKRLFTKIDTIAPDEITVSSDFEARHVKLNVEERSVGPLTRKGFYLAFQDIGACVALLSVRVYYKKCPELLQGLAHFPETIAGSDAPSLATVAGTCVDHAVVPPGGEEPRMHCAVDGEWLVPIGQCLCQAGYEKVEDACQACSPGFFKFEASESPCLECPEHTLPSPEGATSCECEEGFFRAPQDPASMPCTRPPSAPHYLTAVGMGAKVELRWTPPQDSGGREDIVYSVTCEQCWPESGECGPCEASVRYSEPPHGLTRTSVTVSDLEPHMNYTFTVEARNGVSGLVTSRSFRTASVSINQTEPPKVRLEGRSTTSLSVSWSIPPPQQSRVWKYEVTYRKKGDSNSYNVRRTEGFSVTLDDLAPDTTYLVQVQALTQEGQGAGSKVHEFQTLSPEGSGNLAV
T4 sequence (P29317 24-537): as above
T1 sequence (P29317 24-537 limits assumed): as the sequence (P29317 24-537) above
Sequence of Human EphA2 (Ecto) (Human) (P29317 24-537): as above

In the case of “ADVHCPWGPFWCPV[dA]RPGCA (cysteine pairing not given here) [Compound 155]”, the Ki on Human EphA2 (setting [11]) and at Human EphA2 (setting [12]) was 2 nM each time.

Turning to “ADVHCPWGPFWC[dA]VNRPGCA (cysteine pairing not given here) [Compound 154]”, the Ki on Human EphA2 (setting [11]) and at Human EphA2 (setting [12]) was 101 nM throughout.

B1: Bicycle Compound Number 91 (BCY6042) (TATA scaffold), Ac-CPLVNPLCLHPGWSCRGQ-Sar6-(D-K) (peptide)
peptide: CPLVNPLCLHPGWSCRGQXXXXXXK
modifications: N-terminal acetyl; X at 19-24 = Sar; K25 = D-Lys; 3 Cys thioether-linked to TATA scaffold
On to B1, for which the values for the Ki with Human EphA2 (Ecto) [1] and with Mouse EphA2 (Ecto) were 0.00598 µM and 0.0499 µM, respectively.

B2: Bicycle Compound Number 64 (TBMB scaffold) (peptide)
peptide: ACTTGSIWCALQFEPCA
modifications: linker 2-9-16 via TBMB (inferred)
notes: also called Compound 64
B2: the Ki in test [2] is 0.41 µM; in [3] it was 0.0634 µM.

B3: Bicycle Compound Number 14 (TBMB scaffold) (peptide)
peptide: GXXXXXXXXXXACPWGPAWCPVNRPGCA
modifications: N-terminal AF488 (AlexaFluor488); Sar10; 3 Cys thioether-linked to TBMB scaffold
Consider B3, for which, in [4], the Kd came to 0.038 µM.

B4: Bicycle Compound Number 67 (BCY6014) (TATA scaffold), (β-Ala)-Sar10-A(HArg)… (peptide)
peptide: [βAla][Sar][Sar][Sar][Sar][Sar][Sar][Sar][Sar][Sar][Sar]A[hArg]DCPLVNPLCLHPGWTC
modifications: linker 15-22-29 via TATA
As to B4, the Ki in [5] worked out at 0.00851 µM; in test [6], 0.0617 µM.

B5: Bicycle Compound Number 29 (TATA scaffold), ACYVGKECAYMNVCA (peptide)
peptide: ACYVGKECAYMNVCA
modifications: linker 2-8-14 via TATA
Regarding B5, the Ki turned out to be 0.0877 µM in the test with Human EphA2 (Ecto) [7], 0.107 µM with Human EphA2 (Ecto) [8] and 0.209 µM with Human EphA2 (Ecto) [1].

B6: Bicycle Compound Number 87 (BCY6026) (TATA scaffold), ACPLVNPLCLHPGWSCRGQ (peptide)
peptide: ACPLVNPLCLHPGWSCRGQ
modifications: linker 2-9-16 via TATA
On to B6, for which the Ki was 0.00257 µM with Human EphA2 (Ecto) [1] and 0.0186 µM with Mouse EphA2 (Ecto).

B7: Bicycle Compound Number 30 (TATA scaffold), ACQPSNHCAFMNYCA (peptide)
peptide: ACQPSNHCAFMNYCA
modifications: linker 2-8-14 via TATA
Consider B7, for which the Ki with Human EphA2 (Ecto) [7] was 0.137 µM; with Human EphA2 (Ecto) [8], 0.187 µM.

B8: Bicycle Compound Number 2 (TBMB scaffold) (peptide)
peptide: AF488-G[Sar][Sar][Sar][Sar][Sar][Sar][Sar][Sar][Sar][Sar]ACMNDWLCSLGWTC
modifications: linker 13-19-25 via TBMB
For the molecule B8, the Kd in test [4] came to 0.326 µM.

B9: Bicycle Compound Number 32 (TATA scaffold), ACTSCWAYPDSFCA (peptide)
peptide: ACTSCWAYPDSFCA
modifications: linker 2-5-13 via TATA
As for B9, the Ki with Human EphA2 (Ecto) [7] was found to be 0.151 µM; with Human EphA2 (Ecto) [1] it was 0.232 µM.

B10: Bicycle Compound 254 (peptide)
peptide: Ac-[Sar][Sar]H[dD]VPCP[1Nal]G[Aib]F[1Nal]CP[Tle]N[hArg]P[dD]C
modifications: linker 7-14-21 via TBMB
As to B10, the Ki in test [9] amounted to 0.00074 µM; in [10], 0.00064 µM.

B11: Bicycle Compound Number 31 (TATA scaffold), ACSPTPACAVQNLCA (peptide)
peptide: ACSPTPACAVQNLCA
modifications: linker 2-8-14 via TATA
Turning to B11, the Ki with Human EphA2 (Ecto) [8] came out at 0.177 µM; in the test with Human EphA2 (Ecto) [1], 0.223 µM.

B12: Bicycle Compound 262 (peptide)
peptide: Ac-[Sar][Sar]H[dD]VPCP[1Nal]G[Aib]F[1Nal]CP[Tle]NR[Aib]GC
modifications: linker 7-14-21 via TBMB
Turning to B12, the Ki worked out at 0.00071 µM in test [9] and 0.00072 µM in [10].

B13: Bicycle Compound Number 89 (TATA scaffold), (β-Ala)-Sar10-ACPLVNPLCLHPGWSCRGQ (peptide)
peptide: XXXXXXXXXXXACPLVNPLCLHPGWSCRGQ
modifications: N-terminal (β-Ala)-Sar10; 3 Cys thioether-linked to TATA scaffold
On to B13, for which the Ki in the test with Human EphA2 (Ecto) [1] was found to be 0.00286 µM; in the test with Mouse EphA2 (Ecto) it was 0.0295 µM.

B14: Bicycle Compound Number 92 (TATA scaffold), Ac-CPLVNPLCLHPGWSC(HArg)GQ-Sar6-(D-K) (peptide)
peptide: CPLVNPLCLHPGWSCXGQXXXXXXK
modifications: N-terminal acetyl; X16 = HArg (homoarginine); X at 19-24 = Sar; K25 = D-Lys; 3 Cys thioether-linked to TATA scaffold
In the case of B14, the figures for the Ki with Human EphA2 (Ecto) [1] and with Mouse EphA2 (Ecto) were 0.0106 µM and 0.0753 µM, respectively.

B15: Bicycle Compound Number 45 (TBMB scaffold) (peptide)
peptide: ACPWGPAWCPVNRPGCAGAAA
modifications: linker 2-9-16 via TBMB (inferred)
notes: also called Compound 45
For the molecule B15, the Ki in [2] was determined as 0.0992 µM; in test [3] it was 0.117 µM.

The Ki is a measure of affinity in units of concentration, obtained from inhibition or displacement. As a reminder, the Kd is a measure of binding affinity in units of concentration. A high value points to a looser complex.
